The star is where a group is joined. FITC = O=C1OC2(c3ccc(O)cc3Oc3cc(O)ccc32)c2ccc(NC(=S)*)cc21
Biological target: substrate-trapping ClpB variant (E279Q/E678Q) (Escherichia coli, UniProt P63284, E279Q/E678Q)
Experiment: not given
Type: binding
Settings: ClpB with ATP, buffer A, room temperature

Molecule | anisotropy change of free label with ClpB
O=C1OC2(c3ccc(O)cc3Oc3cc(O)ccc32)c2ccccc21 [fluorescein] | did not affect the anisotropy

Biological target: ATP-hydrolysis deficient substrate-trapping ClpB variant (E279Q/E678Q) (Escherichia coli, UniProt P63284 1-857, E279Q | E678Q)
Experiment: fluorescence polarisation
Settings: not given

Molecule | Kd [nM]
FHAWQHQGKTLAISRKTYRI (FITC on the N-terminus; C-terminal amide) [peptide B1N] | 7.26 ± 0.32
{FITC}-QQFRNRRKLTFLKKLGWFNQ-NH2 [peptide B2B] | 11.5 ± 0.52
{FITC}-AHAWQHQGKTLFISRKTYRI-NH2 [peptide B1] | 46.8 ± 1.5
{FITC}-QLWQGQFRNLRRKTFFKKLN-NH2 [peptide B2N] | 17.5 ± 0.92
{FITC}-RLGWFNQ-NH2 [peptide B2T2] | > 1000
{FITC}-KTLFISR-NH2 [peptide B1T] | 329 ± 39
{FITC}-KLFFNLR-NH2 [peptide B2T1] | 912 ± 231
{FITC}-QGQFRNLRRKQLWTFFLNKK-NH2 [peptide B2A] | 10.2 ± 0.8

Source: article PMC6139261 (Archives of biochemistry and biophysics, 2018)
